Data set [1] addresses T1, Taq DNA polymerase (UniProt P19821 P19821:1-832). Description: inhibition; hairpin extension assay. As to conditions: tags: rTaq, 94 kDa, Roche Molecular Systems / Perkin Elmer; stem-loop dimer. As to the method: (§1) In a typical inhibition assay, a 20 μL reaction contained either 0.25 pmoles of Taq polymerase (5 U) or 0.125 pmoles of Tth polymerase (2.5 U), oligonucleotide inhibitor (at varying concentrations), 10 mM Tris-HCl (pH 8.3), 50 mM KCl, 2.5 mM MgCl_2, and 1 mM each dNTPs. Gel purified, 5'-end-labeled hairpin DNA substrate (DNA-HP; 5'-[…]-3') was then added to a final concentration of 250 nM and the reaction was incubated at 30° C. for 1 hour. The reaction was stopped by adding 5 μL of 0.5 M EDTA (pH 8.0) followed by formamide gel loading buffer. Extension products were resolved on 10% polyacrylamide gels under denaturing conditions. The amount of extension products were quantitated by phosphorimager. The amounts of products formed in the presence of inhibitor was normalized to the product formed in the absence of an inhibitor to obtain the percent of product.

The target in data set [2] is T1, Taq DNA polymerase. Description: filter. The following applies: tags: rTaq, 94 kDa, Roche Molecular Systems / Perkin Elmer; stem-loop dimer. The procedure:
For isolation of DNA molecules that bind tightly to Taq polymerase and Tth polymerase, respectively, the nitrocellulose filter partitioning method was used as described in the SELEX Patent Applications. Briefly, gel-purified ^32P ss-DNA pools labeled at the 5' end were suspended in the binding buffer, heated to 80° C., chilled on ice and then brought to room temperature. The DNA (5–10 pM) was then incubated for 15 minutes at room temperature with varying amounts of the target polymerase in 50 µL of the appropriate binding buffer containing 0.1 µg of tRNA and 0.01% hSA. The DNA concentrations were kept lower than 100 pM to ensure equilibrium in the presence of excess protein concentrations. After 15 minutes the binding reaction mixtures were passed through pre-wet nitrocellulose/cellulose acetate mixed matrix filters (0.45 µm pore size, Millipore Corporation, Bedford, Mass.) and the filters were immediately washed with 5 mL of binding buffer. The amount of DNA bound to the filters was quantitated by measuring the radioactivity of the filters by liquid scintillation counting. The quantity of DNA bound to filters in the absence of protein was used for background correction. The percentage of input DNA retained on each filter was plotted against the corresponding log of the polymerase concentration (FIGS. 1 and 2). […]

Data set [3] addresses T1, Taq DNA polymerase. The data set is described as follows: inhibition; hairpin extension assay; IT50 41 C. The following applies: tags: rTaq, 94 kDa, Roche Molecular Systems / Perkin Elmer. As to the method: as §1
Data set [4] deals with T2, Tth DNA polymerase (UniProt P52028 P52028:1-834). The data set is described as follows: inhibition; hairpin extension assay; IT50 34.5 C. As to conditions: tags: rTth, 94 kDa, Roche Molecular Systems / Perkin Elmer. As to the method: as §1
T2 sequence (P52028 whole entry, one chain of several): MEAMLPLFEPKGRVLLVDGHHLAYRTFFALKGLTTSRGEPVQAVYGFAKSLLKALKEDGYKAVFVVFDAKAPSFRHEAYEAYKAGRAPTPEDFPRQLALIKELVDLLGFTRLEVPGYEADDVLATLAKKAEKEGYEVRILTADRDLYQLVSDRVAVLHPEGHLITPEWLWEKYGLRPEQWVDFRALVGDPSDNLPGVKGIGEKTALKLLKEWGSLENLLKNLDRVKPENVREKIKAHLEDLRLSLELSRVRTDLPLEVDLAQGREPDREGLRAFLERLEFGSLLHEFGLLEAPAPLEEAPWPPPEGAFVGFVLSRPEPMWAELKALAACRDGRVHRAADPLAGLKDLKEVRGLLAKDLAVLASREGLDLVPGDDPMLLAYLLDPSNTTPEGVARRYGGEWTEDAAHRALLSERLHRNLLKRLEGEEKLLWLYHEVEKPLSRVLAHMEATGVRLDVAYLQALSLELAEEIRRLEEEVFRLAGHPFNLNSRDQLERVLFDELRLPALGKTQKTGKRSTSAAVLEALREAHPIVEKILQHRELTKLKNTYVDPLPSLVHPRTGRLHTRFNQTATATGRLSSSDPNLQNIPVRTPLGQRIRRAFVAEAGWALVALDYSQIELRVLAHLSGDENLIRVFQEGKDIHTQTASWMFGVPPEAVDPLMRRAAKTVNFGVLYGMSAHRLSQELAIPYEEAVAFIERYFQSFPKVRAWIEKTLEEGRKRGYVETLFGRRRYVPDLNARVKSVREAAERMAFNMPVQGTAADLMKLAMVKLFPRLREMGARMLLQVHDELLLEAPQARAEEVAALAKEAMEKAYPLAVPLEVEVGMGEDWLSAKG
The target in data set [5] is T1, Taq DNA polymerase. The data set is described as follows: inhibition; room temperature 16 h, 12.5 nM Taq; 22 nM at 30 C 1 h; IT50 41 C. The following applies: tags: rTaq, 94 kDa, Roche Molecular Systems / Perkin Elmer. As to the method: (§2) Since the concentration of Taq polymerase used in the assay is 12.5 nM, enzyme inhibition by TQ30 (SEQ ID NO:50) is likely to be a result of stoichiometric binding.
as §1

Data set [6] concerns the target T2, Tth DNA polymerase. The data set is described as follows: inhibition; room temperature; IT50 29 C. The following applies: tags: rTth, 94 kDa, Roche Molecular Systems / Perkin Elmer. The procedure: as §2, §1
The target in data set [7] is T1, Taq DNA polymerase. Description: inhibition; room temperature 16 h, 12.5 nM Taq; 67 nM at 30 C 1 h; IT50 37 C. As to conditions: tags: rTaq, 94 kDa, Roche Molecular Systems / Perkin Elmer. As to the method: as §2, §1
Data set [8] concerns the target T1, Taq DNA polymerase. Description: inhibition; hairpin extension assay, monomer. As to conditions: tags: rTaq, 94 kDa, Roche Molecular Systems / Perkin Elmer; stem-loop. The procedure:
as §1

In data set [9] the target is T2, Tth DNA polymerase. The data set is described as follows: inhibition; hairpin extension assay; IT50 35.6 C. As to conditions: tags: rTth, 94 kDa, Roche Molecular Systems / Perkin Elmer. As to the method:
(§3) Deletion analysis of the full-length TQ21 sequence led to the identification of a 51-mer sequence (Trnc.21 (SEQ ID NO:70) (Table 4)) that retained the ability to inhibit both Taq and Tth polymerases. In addition to the entire 30-nucleotide random region, the Trnc.21 sequence contained 9 and 12 nucleotides from the 5' and 3' fixed regions, respectively (Table 4). […] The calculated $IT50$ values for Taq polymerase and Tth polymerase are 34° C. and 35.6° C., respectively (FIG. 13C). The hairpin extension assays were carried out between the temperatures of 35 and 50° C. for 1 hour with […] Trnc.21. Thus, based on the affinity and the values of $IC50$ and $IT50$, the truncated form of TQ21 is a better inhibitor than the full-length sequence.
as §1, with “conditions.” for “conditions. The amount of extension products were quantitated by phosphorimager. The amounts of products formed in the presence of inhibitor was normalized to the product formed in the absence of an inhibitor to obtain the percent of product.”

Data set [10] has as its target T1, Taq DNA polymerase. Description: inhibition; hairpin extension assay; IT50 34 C. The following applies: tags: rTaq, 94 kDa, Roche Molecular Systems / Perkin Elmer. As to the method:
as §3
as §1, with “conditions.” for “conditions. The amount of extension products were quantitated by phosphorimager. The amounts of products formed in the presence of inhibitor was normalized to the product formed in the absence of an inhibitor to obtain the percent of product.”

For six molecules, IC50 and Kd results are on record in US6020130, “Nucleic acid ligands that bind to and inhibit DNA polymerases” (NeXstar Pharmaceuticals, Inc.).

The IC50 is the concentration needed to halve the response being measured. A high value points to weaker potency. For orientation: Kd means the constant that tells how readily two partners part at equilibrium. Higher therefore signals lower affinity.

T1 sequence (P19821 whole entry, one chain of several): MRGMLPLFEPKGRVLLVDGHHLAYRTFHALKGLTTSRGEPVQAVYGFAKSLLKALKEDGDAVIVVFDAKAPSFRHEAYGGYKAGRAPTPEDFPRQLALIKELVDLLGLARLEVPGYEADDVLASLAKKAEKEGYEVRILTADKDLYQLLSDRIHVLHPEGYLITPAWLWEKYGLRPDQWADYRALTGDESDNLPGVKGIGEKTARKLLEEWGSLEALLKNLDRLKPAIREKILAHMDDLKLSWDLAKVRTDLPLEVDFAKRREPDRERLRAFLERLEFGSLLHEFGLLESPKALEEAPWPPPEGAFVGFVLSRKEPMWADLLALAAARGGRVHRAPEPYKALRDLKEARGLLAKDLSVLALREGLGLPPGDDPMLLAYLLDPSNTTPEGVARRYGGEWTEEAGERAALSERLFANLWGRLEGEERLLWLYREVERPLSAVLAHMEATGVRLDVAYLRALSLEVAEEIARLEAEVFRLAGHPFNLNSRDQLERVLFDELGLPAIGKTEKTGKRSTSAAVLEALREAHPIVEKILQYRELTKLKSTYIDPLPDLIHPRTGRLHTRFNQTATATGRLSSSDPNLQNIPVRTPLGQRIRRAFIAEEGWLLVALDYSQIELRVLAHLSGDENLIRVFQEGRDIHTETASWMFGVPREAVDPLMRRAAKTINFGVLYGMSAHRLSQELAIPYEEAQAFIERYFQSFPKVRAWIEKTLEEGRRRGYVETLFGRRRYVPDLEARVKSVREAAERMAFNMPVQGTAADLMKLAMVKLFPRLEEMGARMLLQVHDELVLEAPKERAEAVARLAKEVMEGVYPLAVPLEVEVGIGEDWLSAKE

B1: D.30-D.30 homodimer (ssDNA)
DNA 1: GCCGGCCAATGTACAGTATTGGCCGGC
DNA 2: GCCGGCCAATGTACAGTATTGGCCGGC
modifications: two Trnc.2-30 copies joined with symmetrical 3'-3' branching CPG linker (linker region drawn in figure only)
For B1, in the data set with Taq DNA polymerase [1], the IC50 amounted to 14 nM. The same molecule came in with a dissociation constant (Kd) with Taq DNA polymerase [2] of 0.0475 nM.

B2: D.21-D.30 heterodimer (ssDNA)
DNA: TGGCGGAGCGATCATCTCAGAGCATTCTTAGCGTTTTGTTCTTGTGTATGATTTGCCGGCCAATGTACAGTATTGGCCGGC
As to B2, the IC50 with Taq DNA polymerase [3] and with Tth DNA polymerase [4] was about 30 nM throughout.

B3: TQ30 (ssDNA)
DNA: TTCTCGGTTGGTCTCTGGCGGAGCAAGACCAGACAATGTACAGTATTGGCCTGATCTTGTGTATGATTCGCTTTTCCC
Take B3: the IC50 with Taq DNA polymerase [5] was 6.5 nM; in the data set with Tth DNA polymerase [6], 60 nM.

B4: TQ21 (ssDNA)
DNA: TTCTCGGTTGGTCTCTGGCGGAGCGATCATCTCAGAGCATTCTTAGCGTTTTGTTCTTGTGTATGATTCGCTTTTCCC
Regarding B4, the 50% inhibitory concentration (IC50) in the data set with Tth DNA polymerase [6] is 36 nM; in the data set with Taq DNA polymerase [7], 10 nM.

As to GCCGGCCAATGTACAGTATTGGCCGGC (ssDNA) [Trnc.2-30], the half-maximal inhibitory concentration (IC50) in the data set with Taq DNA polymerase [8] was determined as 48 nM.

B5: Trnc.21 (ssDNA)
DNA: TGGCGGAGCGATCATCTCAGAGCATTCTTAGCGTTTTGTTCTTGTGTATGA
For the molecule B5, the half-inhibitory concentration (IC50) in the data set with Tth DNA polymerase [9] worked out at 36.5 nM; with Taq DNA polymerase [10], 21 nM.
